What was measured:
unc5b_human UNC5B [1] = molecular target: unc5b_human UNC5B (UniProt Q8IZJ1)
unc5b_human UNC5B [2] = molecular target: unc5b_human UNC5B (UniProt Q8IZJ1); remark: listed apart in the source

Chain of unc5b_human UNC5B (Q8IZJ1 whole entry): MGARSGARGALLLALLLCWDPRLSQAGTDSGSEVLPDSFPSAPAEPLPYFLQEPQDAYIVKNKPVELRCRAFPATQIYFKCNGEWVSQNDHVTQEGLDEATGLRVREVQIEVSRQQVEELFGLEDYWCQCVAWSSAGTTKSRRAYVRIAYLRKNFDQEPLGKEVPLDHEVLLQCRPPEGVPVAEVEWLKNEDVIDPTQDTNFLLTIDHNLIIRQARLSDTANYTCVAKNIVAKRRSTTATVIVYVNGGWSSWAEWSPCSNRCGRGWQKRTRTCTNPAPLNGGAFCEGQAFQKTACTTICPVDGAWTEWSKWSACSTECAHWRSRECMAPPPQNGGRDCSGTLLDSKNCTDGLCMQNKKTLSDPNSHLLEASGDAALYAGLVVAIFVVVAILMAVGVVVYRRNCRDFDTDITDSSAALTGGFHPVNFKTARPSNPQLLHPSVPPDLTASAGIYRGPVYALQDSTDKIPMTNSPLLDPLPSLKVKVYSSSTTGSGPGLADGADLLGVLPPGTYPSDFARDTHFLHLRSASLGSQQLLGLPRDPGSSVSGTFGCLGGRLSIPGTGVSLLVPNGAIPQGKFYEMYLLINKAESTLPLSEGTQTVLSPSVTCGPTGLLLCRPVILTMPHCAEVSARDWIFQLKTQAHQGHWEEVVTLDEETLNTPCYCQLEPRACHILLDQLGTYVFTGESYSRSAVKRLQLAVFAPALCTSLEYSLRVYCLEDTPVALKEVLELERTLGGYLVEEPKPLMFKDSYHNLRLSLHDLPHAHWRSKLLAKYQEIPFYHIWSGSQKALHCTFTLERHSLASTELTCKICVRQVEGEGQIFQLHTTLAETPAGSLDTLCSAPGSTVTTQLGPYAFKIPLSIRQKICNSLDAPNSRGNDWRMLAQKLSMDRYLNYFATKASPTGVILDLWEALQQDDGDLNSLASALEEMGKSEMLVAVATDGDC

Row | effect of a mutation on the interaction (unc5b_human UNC5B [1]) | effect of a mutation on the interaction (unc5b_human UNC5B [2]) | Substance
1 | disrupting interaction |  | Arf-GAP with GTPase, ANK repeat and PH domain-containing protein 2 (Rattus norvegicus (Rat)), Q8CGU4 K413A;S414N
2 |  | disrupting interaction | Arf-GAP with GTPase, ANK repeat and PH domain-containing protein 2 (Rattus norvegicus (Rat)), Q8CGU4 Y1032F;Y1124F
3 |  | disrupting interaction | Arf-GAP with GTPase, ANK repeat and PH domain-containing protein 2 (Rattus norvegicus (Rat)), Q8CGU4 Y1032F
4 |  | disrupting interaction | Arf-GAP with GTPase, ANK repeat and PH domain-containing protein 2 (Rattus norvegicus (Rat)), Q8CGU4 Y1124F

From IntAct's records for PubMed 18469807
